The values below come from PMC7641761.

The target in data set [1] is T1, Ku70/Ku80 heterodimer FL (baculovirus) (human, UniProt P12956;P13010 1-609;1-718). Kind of data set: MST; MST: 50 mM Tris pH 8.0, 50 mM NaCl, 1 mM DTT, 24 C, 40 nM FAM-RNA; EMSA: 25 mM Hepes-KOH pH 7.5, 50 mM NaCl, 1 mM DTT, 1 mM EDTA, 10% glycerol, 0.1 uM BSA, room temperature, 25 min. To be noted: protein: recombinant, tags: His (Ku80), copies: 1;1, label: 5'-FAM.

Data set [2] deals with T2, Ku70/Ku80 heterodimer FL (baculovirus);XLF (human;human?, UniProt P12956;P13010;Q9H9Q4 1-609;1-718;1-299, |). Kind of data set: EMSA; supershift; MST: 50 mM Tris pH 8.0, 50 mM NaCl, 1 mM DTT, 24 C, 40 nM FAM-RNA; EMSA: 25 mM Hepes-KOH pH 7.5, 50 mM NaCl, 1 mM DTT, 1 mM EDTA, 10% glycerol, 0.1 uM BSA, room temperature, 25 min. The note with it: protein: recombinant;recombinant, tags: His (Ku80);, copies: 1;1;2, label: 5'-FAM.

The target of another data set is Ku dCTR (human, UniProt P12956;P13010 1-609;1-569). Kind of data set: MST; MST: 50 mM Tris pH 8.0, 50 mM NaCl, 1 mM DTT, 24 C, 40 nM FAM-RNA; EMSA: 25 mM Hepes-KOH pH 7.5, 50 mM NaCl, 1 mM DTT, 1 mM EDTA, 10% glycerol, 0.1 uM BSA, room temperature, 25 min. The note with it: protein: recombinant; copies: 1;1; label: 5'-FAM; hairpin with bulge.
Data set [3] addresses T1, Ku70/Ku80 heterodimer FL (baculovirus). Briefly: MST; Hill 1.0; MST: 50 mM Tris pH 8.0, 50 mM NaCl, 1 mM DTT, 24 C, 40 nM FAM-RNA; EMSA: 25 mM Hepes-KOH pH 7.5, 50 mM NaCl, 1 mM DTT, 1 mM EDTA, 10% glycerol, 0.1 uM BSA, room temperature, 25 min. To be noted: protein: recombinant; tags: His (Ku80); copies: 1;1; label: 5'-FAM stated for MST RNAs.
Another data set concerns the target Ku5D (human, UniProt P12956;P13010 1-609;1-718, T305D;S306D;T307D;S314D;T316D). Briefly: MST; 20-fold weaker than WT; MST: 50 mM Tris pH 8.0, 50 mM NaCl, 1 mM DTT, 24 C, 40 nM FAM-RNA; EMSA: 25 mM Hepes-KOH pH 7.5, 50 mM NaCl, 1 mM DTT, 1 mM EDTA, 10% glycerol, 0.1 uM BSA, room temperature, 25 min. The note with it: protein: recombinant; copies: 1;1; label: 5'-FAM on strand 1; fork; 42-mer/29-mer.

Data set [4] deals with Ku70/Ku80 heterodimer FL (baculovirus);PAXX (human;human?, UniProt P12956;P13010;Q9BUH6 1-609;1-718;1-204, |). Briefly: EMSA; supershift; MST: 50 mM Tris pH 8.0, 50 mM NaCl, 1 mM DTT, 24 C, 40 nM FAM-RNA; EMSA: 25 mM Hepes-KOH pH 7.5, 50 mM NaCl, 1 mM DTT, 1 mM EDTA, 10% glycerol, 0.1 uM BSA, room temperature, 25 min. To be noted: protein: recombinant;recombinant; tags: His (Ku80);GST cleaved; copies: 1;1;2; label: 3'-FAM on lower strand; blunt.

Data set [5] addresses T2, Ku70/Ku80 heterodimer FL …. Kind of data set: EMSA; supershift; Ku preparation not stated; MST: 50 mM Tris pH 8.0, 50 mM NaCl, 1 mM DTT, 24 C, 40 nM FAM-RNA; EMSA: 25 mM Hepes-KOH pH 7.5, 50 mM NaCl, 1 mM DTT, 1 mM EDTA, 10% glycerol, 0.1 uM BSA, room temperature, 25 min. The note with it: protein: recombinant;recombinant; tags: His (Ku80);; copies: 1;1;2; label: 3'-FAM on lower strand; blunt.

Data set [6] has as its target T1, Ku70/Ku80 heterodimer FL (baculovirus). Briefly: MST; Hill 1.75; MST: 50 mM Tris pH 8.0, 50 mM NaCl, 1 mM DTT, 24 C, 40 nM FAM-RNA; EMSA: 25 mM Hepes-KOH pH 7.5, 50 mM NaCl, 1 mM DTT, 1 mM EDTA, 10% glycerol, 0.1 uM BSA, room temperature, 25 min. To be noted: protein: recombinant; tags: His (Ku80); copies: 1;1; label: 5'-FAM; blunt.
The target is the same in data set [7]. Briefly: EMSA; Ku preparation not stated; MST: 50 mM Tris pH 8.0, 50 mM NaCl, 1 mM DTT, 24 C, 40 nM FAM-RNA; EMSA: 25 mM Hepes-KOH pH 7.5, 50 mM NaCl, 1 mM DTT, 1 mM EDTA, 10% glycerol, 0.1 uM BSA, room temperature, 25 min. To be noted: protein: recombinant; tags: His (Ku80); copies: 1;1; label: 5'-FAM; G4.

T2 sequence (P12956 whole entry, chain 1 of 3): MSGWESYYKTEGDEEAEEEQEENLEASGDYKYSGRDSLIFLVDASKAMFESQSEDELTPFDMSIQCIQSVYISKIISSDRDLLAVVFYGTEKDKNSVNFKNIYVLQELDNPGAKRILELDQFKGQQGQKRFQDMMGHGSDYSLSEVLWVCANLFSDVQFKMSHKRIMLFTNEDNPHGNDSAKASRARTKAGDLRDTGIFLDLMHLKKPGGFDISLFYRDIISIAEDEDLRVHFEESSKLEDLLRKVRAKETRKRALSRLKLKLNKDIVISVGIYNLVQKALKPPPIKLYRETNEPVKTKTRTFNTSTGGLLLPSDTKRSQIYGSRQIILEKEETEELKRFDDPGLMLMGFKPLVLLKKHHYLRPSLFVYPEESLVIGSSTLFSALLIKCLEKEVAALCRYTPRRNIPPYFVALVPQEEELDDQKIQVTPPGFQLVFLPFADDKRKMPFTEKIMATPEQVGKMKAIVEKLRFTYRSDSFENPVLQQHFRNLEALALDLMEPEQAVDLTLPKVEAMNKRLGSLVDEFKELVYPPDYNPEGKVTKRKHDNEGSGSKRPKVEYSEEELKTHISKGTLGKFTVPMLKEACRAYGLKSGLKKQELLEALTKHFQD
T2 sequence (P13010 1-718, chain 2 of 3): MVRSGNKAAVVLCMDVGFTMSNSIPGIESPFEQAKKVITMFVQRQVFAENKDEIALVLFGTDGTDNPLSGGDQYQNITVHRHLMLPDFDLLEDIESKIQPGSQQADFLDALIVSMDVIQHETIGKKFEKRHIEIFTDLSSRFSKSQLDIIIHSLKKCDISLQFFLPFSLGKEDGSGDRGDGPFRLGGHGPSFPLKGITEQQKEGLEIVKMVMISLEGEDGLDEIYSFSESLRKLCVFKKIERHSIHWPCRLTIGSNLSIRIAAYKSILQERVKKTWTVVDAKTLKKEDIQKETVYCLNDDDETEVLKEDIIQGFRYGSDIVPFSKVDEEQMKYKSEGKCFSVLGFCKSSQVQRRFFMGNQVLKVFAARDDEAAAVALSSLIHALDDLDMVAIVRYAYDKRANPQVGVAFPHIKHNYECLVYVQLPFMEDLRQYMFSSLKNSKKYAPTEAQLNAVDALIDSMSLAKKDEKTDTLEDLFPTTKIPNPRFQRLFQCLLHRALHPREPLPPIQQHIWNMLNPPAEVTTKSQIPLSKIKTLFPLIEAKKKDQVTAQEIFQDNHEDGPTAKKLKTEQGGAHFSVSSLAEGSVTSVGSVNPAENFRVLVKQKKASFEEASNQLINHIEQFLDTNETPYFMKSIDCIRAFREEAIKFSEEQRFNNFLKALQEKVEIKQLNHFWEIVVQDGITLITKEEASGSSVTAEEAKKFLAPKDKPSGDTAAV
T2 sequence (Q9H9Q4 whole entry, chain 3 of 3): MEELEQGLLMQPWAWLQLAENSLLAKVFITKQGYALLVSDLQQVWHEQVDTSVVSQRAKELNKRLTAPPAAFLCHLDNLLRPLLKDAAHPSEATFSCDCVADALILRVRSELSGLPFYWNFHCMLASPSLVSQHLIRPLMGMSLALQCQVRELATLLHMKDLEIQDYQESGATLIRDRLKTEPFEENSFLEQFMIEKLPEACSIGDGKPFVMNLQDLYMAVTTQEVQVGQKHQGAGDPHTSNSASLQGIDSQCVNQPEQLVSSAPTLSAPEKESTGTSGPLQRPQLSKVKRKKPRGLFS
T1 sequence (P12956 whole entry, chain 1 of 2): as the sequence (P12956 whole entry, chain 1 of 3) above
T1 sequence (P13010 1-718, chain 2 of 2): as the sequence (P13010 1-718, chain 2 of 3) above
Ku dCTR, sequence (P12956 whole entry, chain 1 of 2): as the sequence (P12956 whole entry, chain 1 of 3) above
Ku dCTR, sequence (P13010 1-569, chain 2 of 2): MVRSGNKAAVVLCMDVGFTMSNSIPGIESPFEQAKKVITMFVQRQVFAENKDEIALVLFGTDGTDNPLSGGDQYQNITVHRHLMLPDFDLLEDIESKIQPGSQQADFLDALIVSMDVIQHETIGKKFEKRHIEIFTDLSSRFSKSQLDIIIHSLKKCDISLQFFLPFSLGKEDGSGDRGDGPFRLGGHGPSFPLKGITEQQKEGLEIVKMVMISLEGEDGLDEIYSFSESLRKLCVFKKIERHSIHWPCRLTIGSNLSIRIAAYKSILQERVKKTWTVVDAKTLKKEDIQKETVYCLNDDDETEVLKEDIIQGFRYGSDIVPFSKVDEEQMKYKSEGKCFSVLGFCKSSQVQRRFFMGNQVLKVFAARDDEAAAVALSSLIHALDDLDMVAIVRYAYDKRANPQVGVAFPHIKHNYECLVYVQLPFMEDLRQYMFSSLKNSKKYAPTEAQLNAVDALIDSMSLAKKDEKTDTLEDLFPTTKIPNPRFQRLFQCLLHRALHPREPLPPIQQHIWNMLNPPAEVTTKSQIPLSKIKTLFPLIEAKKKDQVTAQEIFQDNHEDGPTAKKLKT
Ku70/Ku80 heterodimer FL (baculovirus);PAXX, sequence (P12956 whole entry, chain 1 of 3): as the sequence (P12956 whole entry, chain 1 of 3) above
Ku70/Ku80 heterodimer FL (baculovirus);PAXX, sequence (P13010 1-718, chain 2 of 3): as the sequence (P13010 1-718, chain 2 of 3) above
Ku70/Ku80 heterodimer FL (baculovirus);PAXX, sequence (Q9BUH6 whole entry, chain 3 of 3): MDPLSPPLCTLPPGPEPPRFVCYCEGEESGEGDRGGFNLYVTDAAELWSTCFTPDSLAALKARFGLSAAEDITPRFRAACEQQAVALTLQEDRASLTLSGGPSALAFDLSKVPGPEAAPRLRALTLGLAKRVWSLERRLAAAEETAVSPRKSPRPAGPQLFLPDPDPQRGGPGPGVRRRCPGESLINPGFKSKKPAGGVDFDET
Ku5D, sequence (P12956 whole entry T305D/S306D/T307D/S314D/T316D, chain 1 of 2): as the sequence (P12956 whole entry, chain 1 of 3) above, with T305D, S306D, T307D, S314D, T316D counted along it
Ku5D, sequence (P13010 1-718, chain 2 of 2): as the sequence (P13010 1-718, chain 2 of 3) above

With AAGGCUAGACCGGGGGCUCGCAUUUCUUUUUUUGCAGCUGCCACUGCCA (structured_RNA) [SL3-LM], the dissociation constant Kd in data set [1] (hairpin) was found to be 2370 ± 1040 nM.
In the case of AAGGCUAGACCGGGGGCUCGCAUAUCUCCACUUGCAGCUGCCACUGCCA (structured_RNA) [SL3], the Kd in data set [1] (hairpin with bulge) was 840 ± 450 nM. The binding result in data set [2] (hairpin with bulge) is on record as “binds”.
Turning to UGACUUUUCCUUGCUCAAUAGAAUGAGAAGGAGGUGGCG (structured_RNA) [SL2], the Kd was determined as 900 ± 170 nM in data set [1] (hairpin with bulge) and 1020 ± 180 nM with Ku dCTR. For the same molecule, the binding result in data set [2] (hairpin with bulge) is “binds”.
As for CCCUCCGUCUCCUUGACUCUGGG (structured_RNA) [SL1], in [1] (hairpin), the Kd was 1690 ± 700 nM.
As for CCUGGGGUAGGAGAGGGUAUGGGGACCAGGGCACU (structured_RNA) [LINP1 GQ1], the Kd in [1] (G4) came to 110 ± 40 nM. The binding result in data set [2] (G4) was “binds”.
As to AACCGUAGACCCCGUCGACCGUUAUCUCCACUACGUCGGGGGACUGGGA (structured_RNA) [SL3-BT], in [1] (hairpin), the Kd was found to be 1870 ± 360 nM.

B1: LINP1 (1-300) (structured_RNA)
RNA: CCCUCCGUCUCCUUGACUCUGGGUGGGCUGUGUGACUUUUCCUUGCUCAAUAGAAUGAGAAGGAGGUGGCGCACCGGCUACAAGGCUAGACCGGGGGCUCGCAUAUCUCCACUUGCAGCUGCCACUGCCAUUAGAAGAACUUGCUCAGCCAGCUCCUGGGCCCCAGGAAAAGGACAAGUGUCACCCAGAACAGAGCCACCUCCAGCUGCACUCAGCUCCAGAAGCUGGCCCAGCCGGUCCAGUACACCUUUUAAAUAAUGUCCUCUACGUGCCGGUGUGGAAGUAGCCCGGAUGCAAUUG
Regarding B1, the equilibrium dissociation constant (Kd) in data set [3] amounted to 1920 ± 330 nM.

B2: Fork substrate (dsDNA)
DNA 1: CGCGCCCAGCTTTCCCAGCTAATAAACTAAAAACTCCTAAGG
DNA 2: CCTTAGGAGTTTTTAGTTTATTGGGCGCG
As for B2, the Kd with Ku5D was about 15000 nM.
For UAGGGUUAGGGU (structured_RNA) [TERRA G-quadruplex], in data set [1] (G4 (multimeric)), the dissociation constant (Kd) turned out to be 430 ± 180 nM.
On to UGACUUUUCCUUGCUCAUUUUUUUGAGAAGGAGGUGGCG (structured_RNA) [SL2-LM], for which, in data set [1] (hairpin), the Kd was 1620 ± 470 nM.

B3: 25bp duplex DNA (dsDNA)
DNA 1: AGCATTGACTGGCATCGTAGCATCC
DNA 2: GGATGCTACGATGCCAGTCAATGCT
Take B3: the binding result in data set [4] and in data set [5] was “binds” in each case.
In the case of UGACUGGAGGAAGGAGUAUAGAAACUCUUCCUUUUGGCG (structured_RNA) [SL2-BT], the Kd in data set [1] (hairpin) was determined as 6050 ± 9400 nM.

B4: d50 DNA (dsDNA)
DNA 1: CTCTTGGTGATTATGGTTGCAATACATTTAATTTCATTATCAATTAG
DNA 2: CTAATTGATAATGAAATTAAATGTATTGCAACCATAATCACCAAGAG
B4: in data set [6], the dissociation constant Kd worked out at 19 ± 19 nM.
As for TTAGGGTTAGGGTTAGGGTTAGGG (structured_DNA) [DNA G-quadruplex], the binding result in [7] was “no binding”.
